# Values of other authors in PMC3433420.
# Like-named read-outs stand apart in the source and are kept apart here.
# Legend:
# Conditions in all cases: cited from earlier work
# [1] = biological target: BLK (Homo sapiens) (UniProt P51451)
# [2] = biological target: PLCG2-NC (Homo sapiens) (UniProt P16885)
# [3] = biological target: ABL2 (Homo sapiens) (UniProt P42684)
# [4] = biological target: PIK3R3-NC (Homo sapiens) (UniProt Q92569)
# [5] = biological target: BCAR3 (Homo sapiens) (UniProt O75815)
# Chain of BCAR3 (Homo sapiens) (O75815 149-258): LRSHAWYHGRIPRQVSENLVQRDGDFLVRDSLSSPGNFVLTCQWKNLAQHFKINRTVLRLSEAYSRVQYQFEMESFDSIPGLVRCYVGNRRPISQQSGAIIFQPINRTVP
# [6] = biological target: SHC1-PTB (Homo sapiens) (UniProt P29353)
# Chain of SHC1-PTB (Homo sapiens) (P29353 483-583): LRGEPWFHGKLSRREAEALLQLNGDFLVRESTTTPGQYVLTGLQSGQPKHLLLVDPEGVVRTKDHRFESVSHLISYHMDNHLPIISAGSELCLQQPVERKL
# [7] = biological target: CRKL (Homo sapiens) (UniProt P46109)
# Chain of CRKL (Homo sapiens) (P46109 9-107): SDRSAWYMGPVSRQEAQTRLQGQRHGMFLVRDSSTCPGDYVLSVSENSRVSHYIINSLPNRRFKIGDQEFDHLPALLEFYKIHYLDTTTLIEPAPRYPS
# [8] = biological target: SYK-NC (Homo sapiens) (UniProt P43405)
# [9] = biological target: NCK2 (Homo sapiens) (UniProt O43639)
# Chain of NCK2 (Homo sapiens) (O43639 280-380): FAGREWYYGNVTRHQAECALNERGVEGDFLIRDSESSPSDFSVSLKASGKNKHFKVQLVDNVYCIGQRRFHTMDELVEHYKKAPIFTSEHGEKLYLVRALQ
# [10] = biological target: RASA1-N (Homo sapiens) (UniProt P20936)
# Chain of RASA1-N (Homo sapiens) (P20936 176-446): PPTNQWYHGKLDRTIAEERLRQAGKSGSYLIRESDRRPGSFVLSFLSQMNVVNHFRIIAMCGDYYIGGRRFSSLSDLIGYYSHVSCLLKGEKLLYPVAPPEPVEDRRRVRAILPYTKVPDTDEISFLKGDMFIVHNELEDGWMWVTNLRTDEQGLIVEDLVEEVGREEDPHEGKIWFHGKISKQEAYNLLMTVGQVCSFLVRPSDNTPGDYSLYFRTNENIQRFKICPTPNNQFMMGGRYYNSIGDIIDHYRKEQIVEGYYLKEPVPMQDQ
# [11] = biological target: VAV2 (Homo sapiens) (UniProt P52735)
# Chain of VAV2 (Homo sapiens) (P52735 668-772): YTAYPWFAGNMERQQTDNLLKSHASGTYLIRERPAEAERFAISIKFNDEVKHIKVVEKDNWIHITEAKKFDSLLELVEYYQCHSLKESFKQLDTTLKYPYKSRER
# [12] = biological target: NCK2 (Homo sapiens) (UniProt O43639); remark: listed apart in the source
# [13] = biological target: RASA1-N (Homo sapiens) (UniProt P20936); remark: listed apart in the source
# [14] = biological target: PIK3R3-C (Homo sapiens) (UniProt Q92569)
# [15] = biological target: SLA (Homo sapiens) (UniProt Q13239)
# Chain of SLA (Homo sapiens) (Q13239 79-180): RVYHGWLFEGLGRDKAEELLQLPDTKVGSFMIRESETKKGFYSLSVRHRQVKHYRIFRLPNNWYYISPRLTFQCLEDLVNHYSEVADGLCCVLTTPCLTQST
# [16] = biological target: CRKL (Homo sapiens) (UniProt P46109); remark: listed apart in the source
# [17] = biological target: PIK3R3-NC (Homo sapiens) (UniProt Q92569); remark: listed apart in the source
# [18] = biological target: TXK (Homo sapiens) (UniProt P42681)
# Chain of TXK (Homo sapiens) (P42681 145-251): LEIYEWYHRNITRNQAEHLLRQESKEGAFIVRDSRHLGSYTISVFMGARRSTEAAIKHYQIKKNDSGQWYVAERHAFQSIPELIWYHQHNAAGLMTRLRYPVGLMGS
# [19] = biological target: PIK3R3-N (Homo sapiens) (UniProt Q92569)
# [20] = biological target: ABL2 (Homo sapiens) (UniProt P42684); remark: listed apart in the source
# [21] = biological target: BCAR3 (Homo sapiens) (UniProt O75815); remark: listed apart in the source
# [22] = biological target: ABL1 (Homo sapiens) (UniProt P00519)
# Chain of ABL1 (Homo sapiens) (P00519 122-222): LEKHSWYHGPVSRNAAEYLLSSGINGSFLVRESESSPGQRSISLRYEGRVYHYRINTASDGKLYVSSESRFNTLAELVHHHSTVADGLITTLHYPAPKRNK
# [23] = biological target: CRK (Homo sapiens) (UniProt P46108)
# Chain of CRK (Homo sapiens) (P46108 8-123): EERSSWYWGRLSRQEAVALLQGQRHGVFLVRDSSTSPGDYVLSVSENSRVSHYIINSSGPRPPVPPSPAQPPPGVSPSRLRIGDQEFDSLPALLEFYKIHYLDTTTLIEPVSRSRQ
# [24] = biological target: PLCG1-C (Homo sapiens) (UniProt P19174)
# Chain of PLCG1-C (Homo sapiens) (P19174 545-761): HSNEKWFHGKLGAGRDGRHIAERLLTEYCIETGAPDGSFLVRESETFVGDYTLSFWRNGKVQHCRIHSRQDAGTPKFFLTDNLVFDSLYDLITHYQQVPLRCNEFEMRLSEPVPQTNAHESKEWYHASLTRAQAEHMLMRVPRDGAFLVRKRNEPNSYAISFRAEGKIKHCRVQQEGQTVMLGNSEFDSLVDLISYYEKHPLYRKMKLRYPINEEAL
# [25] = biological target: SHC1 (Homo sapiens) (UniProt P29353)
# Chain of SHC1 (Homo sapiens) (P29353 483-583): as the sequence (P29353 483-583) above
# [26] = biological target: SH2B2 (Homo sapiens) (UniProt O14492)
# Chain of SH2B2 (Homo sapiens) (O14492 412-520): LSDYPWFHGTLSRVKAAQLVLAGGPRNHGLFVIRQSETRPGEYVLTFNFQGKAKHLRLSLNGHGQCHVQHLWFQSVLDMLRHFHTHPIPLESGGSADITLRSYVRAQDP
# [27] = biological target: PIK3R1-NC (Homo sapiens) (UniProt P27986)
# [28] = biological target: PLCG1-NC (Homo sapiens) (UniProt P19174)
# Chain of PLCG1-NC (Homo sapiens) (P19174 545-761): as the sequence (P19174 545-761) above
# [29] = biological target: PIK3R2-NC (Homo sapiens) (UniProt O00459)
# [30] = biological target: PIK3R1-N (Homo sapiens) (UniProt P27986)
# [31] = biological target: HCK (Homo sapiens) (UniProt P08631)
# Chain of HCK (Homo sapiens) (P08631 139-246): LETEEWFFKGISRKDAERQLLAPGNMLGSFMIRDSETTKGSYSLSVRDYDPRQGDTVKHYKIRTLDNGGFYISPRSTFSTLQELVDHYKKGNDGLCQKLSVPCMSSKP
# [32] = biological target: PIK3R2-C (Homo sapiens) (UniProt O00459)
# [33] = biological target: NCK1 (Homo sapiens) (UniProt P16333)
# [34] = biological target: PTK6 (Homo sapiens) (UniProt Q13882)
# Chain of PTK6 (Homo sapiens) (Q13882 73-175): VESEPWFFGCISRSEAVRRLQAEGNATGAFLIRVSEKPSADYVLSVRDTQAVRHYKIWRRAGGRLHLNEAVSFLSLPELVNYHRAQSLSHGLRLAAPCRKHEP
# [35] = biological target: PIK3R2-N (Homo sapiens) (UniProt O00459)
# Chain of PIK3R2-N (Homo sapiens) (O00459 325-721): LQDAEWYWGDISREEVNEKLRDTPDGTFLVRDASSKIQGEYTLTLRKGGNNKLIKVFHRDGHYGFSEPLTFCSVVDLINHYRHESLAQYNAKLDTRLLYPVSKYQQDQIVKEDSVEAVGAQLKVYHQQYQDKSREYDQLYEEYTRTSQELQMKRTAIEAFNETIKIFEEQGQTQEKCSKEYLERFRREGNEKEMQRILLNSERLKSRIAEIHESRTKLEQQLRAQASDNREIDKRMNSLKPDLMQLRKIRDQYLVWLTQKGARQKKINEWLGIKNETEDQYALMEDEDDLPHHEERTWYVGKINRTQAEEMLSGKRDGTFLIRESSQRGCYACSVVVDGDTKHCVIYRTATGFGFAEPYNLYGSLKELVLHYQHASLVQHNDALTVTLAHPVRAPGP
# [36] = biological target: GRB7 (Homo sapiens) (UniProt Q14451)
# [37] = biological target: SYK-NC (Homo sapiens) (UniProt P43405); remark: listed apart in the source
# [38] = biological target: VAV1 (Homo sapiens) (UniProt P15498)
# Chain of VAV1 (Homo sapiens) (P15498 666-770): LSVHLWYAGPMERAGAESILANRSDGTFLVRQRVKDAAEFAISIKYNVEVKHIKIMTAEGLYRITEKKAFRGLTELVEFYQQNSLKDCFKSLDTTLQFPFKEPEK
# [39] = biological target: SRC (Homo sapiens) (UniProt P12931)
# [40] = biological target: SHC3 (Homo sapiens) (UniProt Q92529)
# [41] = biological target: SLA2 (Homo sapiens) (UniProt Q9H6Q3)
# [42] = biological target: TNS3 (Homo sapiens) (UniProt Q68CZ2)
# Chain of TNS3 (Homo sapiens) (Q68CZ2 1167-1287): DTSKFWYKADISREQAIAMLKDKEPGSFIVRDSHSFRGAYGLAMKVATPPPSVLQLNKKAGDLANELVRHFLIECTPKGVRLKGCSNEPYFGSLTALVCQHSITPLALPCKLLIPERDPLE
# [43] = biological target: ZAP70-C (Homo sapiens) (UniProt P43403)
# Chain of ZAP70-C (Homo sapiens) (P43403 5-259): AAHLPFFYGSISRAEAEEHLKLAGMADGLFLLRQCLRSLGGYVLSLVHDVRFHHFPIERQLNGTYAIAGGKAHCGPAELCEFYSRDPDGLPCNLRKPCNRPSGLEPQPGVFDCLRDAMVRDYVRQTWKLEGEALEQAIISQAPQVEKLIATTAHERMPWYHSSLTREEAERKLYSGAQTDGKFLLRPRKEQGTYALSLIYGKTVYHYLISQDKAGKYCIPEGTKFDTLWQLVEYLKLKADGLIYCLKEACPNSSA
# [44] = biological target: VAV3 (Homo sapiens) (UniProt Q9UKW4)
# [45] = biological target: TENC1 (Homo sapiens) (UniProt Q63HR2)
# Chain of TENC1 (Homo sapiens) (Q63HR2 1135-1252): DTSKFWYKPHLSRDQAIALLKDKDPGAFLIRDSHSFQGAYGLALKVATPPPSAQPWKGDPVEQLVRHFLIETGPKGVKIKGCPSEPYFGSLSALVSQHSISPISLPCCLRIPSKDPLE
# Chain of ABL2 (Homo sapiens) (P42684 168-268): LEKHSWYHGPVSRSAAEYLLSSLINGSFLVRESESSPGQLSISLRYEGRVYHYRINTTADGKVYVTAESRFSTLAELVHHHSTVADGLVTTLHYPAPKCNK
# Chain of BLK (Homo sapiens) (P51451 119-225): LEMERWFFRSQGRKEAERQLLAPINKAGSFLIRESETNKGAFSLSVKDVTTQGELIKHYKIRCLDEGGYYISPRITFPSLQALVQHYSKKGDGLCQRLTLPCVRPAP
substance,measurement,setting,value
…pYSEDPTVPd,apparent Kd (screen),[1],763 nM
same,apparent Kd (screen),[2],1060 nM
…pYSEAKTPI,apparent Kd (screen),[3],71 nM
same,apparent Kd (screen),[4],2000 nM
same,apparent Kd (screen),[5],1780 nM
same,apparent Kd (screen),[6],2000 nM
same,apparent Kd (screen),[7],1760 nM
same,apparent Kd (screen),[8],923 nM
same,apparent Kd (screen),[9],2000 nM
same,apparent Kd (screen),[10],953 nM
…pYAAMGACP,apparent Kd (screen),[11],300 nM
same,apparent Kd (screen),[12],550 nM
same,apparent Kd (screen),[13],906 nM
same,apparent Kd (screen),[14],499 nM
same,apparent Kd (screen),[15],2000 nM
same,apparent Kd (screen),[16],435 nM
same,apparent Kd (screen),[17],14 nM
same,apparent Kd (screen),[18],1670 nM
same,apparent Kd (screen),[19],499 nM
same,apparent Kd (screen),[20],147 nM
same,apparent Kd (screen),[21],2000 nM
same,apparent Kd (screen),[22],2000 nM
same,apparent Kd (screen),[23],264 nM
same,apparent Kd (screen),[24],689 nM
same,apparent Kd (screen),[25],595 nM
same,apparent Kd (screen),[26],2000 nM
same,apparent Kd (screen),[27],55 nM
same,apparent Kd (screen),[28],720 nM
same,apparent Kd (screen),[29],78 nM
same,apparent Kd (screen),[30],528 nM
same,apparent Kd (screen),[31],581 nM
same,apparent Kd (screen),[32],926 nM
same,apparent Kd (screen),[33],208 nM
same,apparent Kd (screen),[34],440 nM
same,apparent Kd (screen),[35],120 nM
same,apparent Kd (screen),[36],979 nM
same,apparent Kd (screen),[37],596 nM
same,apparent Kd (screen),[38],2000 nM
same,apparent Kd (screen),[39],1500 nM
same,apparent Kd (screen),[40],636 nM
same,apparent Kd (screen),[41],2000 nM
same,apparent Kd (screen),[42],1500 nM
same,apparent Kd (screen),[43],1440 nM
same,apparent Kd (screen),[44],1540 nM
same,apparent Kd (screen),[45],2000 nM
